For 13 molecules, Kd results are on record in paper PMC10786891, “Massively parallel profiling of RNA-targeting CRISPR-Cas13d”.

Sequences and labels used below:
T1: EsCas13d, nuclease-dead (Eubacterium siraeum, UniProt B0MS50, R295A;H300A;R849A;H854A)
T1 sequence: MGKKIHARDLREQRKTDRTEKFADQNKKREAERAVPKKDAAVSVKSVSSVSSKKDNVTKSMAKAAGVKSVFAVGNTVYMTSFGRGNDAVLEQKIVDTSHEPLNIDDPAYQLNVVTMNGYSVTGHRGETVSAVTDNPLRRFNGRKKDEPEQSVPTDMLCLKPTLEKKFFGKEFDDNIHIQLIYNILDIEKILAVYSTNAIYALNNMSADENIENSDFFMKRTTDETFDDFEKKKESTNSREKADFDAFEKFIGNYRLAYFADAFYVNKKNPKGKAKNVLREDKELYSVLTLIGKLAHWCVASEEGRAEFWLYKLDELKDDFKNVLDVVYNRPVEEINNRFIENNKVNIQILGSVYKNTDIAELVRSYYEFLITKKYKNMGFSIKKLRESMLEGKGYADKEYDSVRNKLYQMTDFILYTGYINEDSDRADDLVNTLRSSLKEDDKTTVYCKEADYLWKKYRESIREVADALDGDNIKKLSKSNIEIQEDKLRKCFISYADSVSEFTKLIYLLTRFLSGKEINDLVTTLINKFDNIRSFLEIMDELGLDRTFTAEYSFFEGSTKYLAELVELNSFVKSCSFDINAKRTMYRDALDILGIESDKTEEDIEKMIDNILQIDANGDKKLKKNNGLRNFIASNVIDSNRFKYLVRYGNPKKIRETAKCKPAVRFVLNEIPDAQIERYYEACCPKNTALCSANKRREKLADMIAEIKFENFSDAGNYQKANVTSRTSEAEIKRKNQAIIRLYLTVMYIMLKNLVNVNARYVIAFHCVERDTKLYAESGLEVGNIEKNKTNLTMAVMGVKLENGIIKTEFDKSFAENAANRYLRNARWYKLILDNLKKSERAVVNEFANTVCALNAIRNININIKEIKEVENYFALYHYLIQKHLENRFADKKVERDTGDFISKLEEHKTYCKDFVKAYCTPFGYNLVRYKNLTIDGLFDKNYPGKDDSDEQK

B1: target 1 insA 3' of 22,insA 3' of 5 (mixed)
RNA 1: CACCCGUGCAAAAAUGCAGGGGUCUAAAACUGAGCGGAUAACCUCUCUAUGG
RNA 2: GGGAAUGGAUCCACAUCUACGAAUUCGUACACAUAGAGAGGUUAUCCGACUCACCGAGAUCGGAAGAGCACACGU
B2: target 1 insU 3' of 18,insA 3' of 15 (mixed)
RNA 1: CACCCGUGCAAAAAUGCAGGGGUCUAAAACUGAGCGGAUAACCUCUCUAUGG
RNA 2: GGGAAUGGAUCCACAUCUACGAAUUCGUACCAUAUGAGAAGGUUAUCCGCUCACCGAGAUCGGAAGAGCACACGU
B3: target 1 U3G,U10G (mixed)
RNA 1: CACCCGUGCAAAAAUGCAGGGGUCUAAAACUGAGCGGAUAACCUCUCUAUGG
RNA 2: GGGAAUGGAUCCACAUCUACGAAUUCGUACCAUAGAGAGGUGAUCCGCGCACCGAGAUCGGAAGAGCACACGU
B4: target 1 U8A,U10G (mixed)
RNA 1: CACCCGUGCAAAAAUGCAGGGGUCUAAAACUGAGCGGAUAACCUCUCUAUGG
RNA 2: GGGAAUGGAUCCACAUCUACGAAUUCGUACCAUAGAGAGGUGAACCGCUCACCGAGAUCGGAAGAGCACACGU
B5: target 1 A16G,U19C (mixed)
RNA 1: CACCCGUGCAAAAAUGCAGGGGUCUAAAACUGAGCGGAUAACCUCUCUAUGG
RNA 2: GGGAAUGGAUCCACAUCUACGAAUUCGUACCACAGGGAGGUUAUCCGCUCACCGAGAUCGGAAGAGCACACGU
B6: target 1 insG 3' of 16,insG 3' of 14 (mixed)
RNA 1: CACCCGUGCAAAAAUGCAGGGGUCUAAAACUGAGCGGAUAACCUCUCUAUGG
RNA 2: GGGAAUGGAUCCACAUCUACGAAUUCGUACCAUAGAGGAGGGUUAUCCGCUCACCGAGAUCGGAAGAGCACACGU
B7: target 1 insA 3' of 21,insG 3' of 7 (mixed)
RNA 1: CACCCGUGCAAAAAUGCAGGGGUCUAAAACUGAGCGGAUAACCUCUCUAUGG
RNA 2: GGGAAUGGAUCCACAUCUACGAAUUCGUACCAAUAGAGAGGUUAUCGCGCUCACCGAGAUCGGAAGAGCACACGU
B8: target 1 insC 3' of 17,insG 3' of 9 (mixed)
RNA 1: CACCCGUGCAAAAAUGCAGGGGUCUAAAACUGAGCGGAUAACCUCUCUAUGG
RNA 2: GGGAAUGGAUCCACAUCUACGAAUUCGUACCAUAGCAGAGGUUAGUCCGCUCACCGAGAUCGGAAGAGCACACGU
B9: target 1 G5U,G17U (mixed)
RNA 1: CACCCGUGCAAAAAUGCAGGGGUCUAAAACUGAGCGGAUAACCUCUCUAUGG
RNA 2: GGGAAUGGAUCCACAUCUACGAAUUCGUACCAUAUAGAGGUUAUCCUCUCACCGAGAUCGGAAGAGCACACGU
B10: target 1 U19C,C22G (mixed)
RNA 1: CACCCGUGCAAAAAUGCAGGGGUCUAAAACUGAGCGGAUAACCUCUCUAUGG
RNA 2: GGGAAUGGAUCCACAUCUACGAAUUCGUAGCACAGAGAGGUUAUCCGCUCACCGAGAUCGGAAGAGCACACGU
B11: target 1 insA 3' of 15,insC 3' of 15 (mixed)
RNA 1: CACCCGUGCAAAAAUGCAGGGGUCUAAAACUGAGCGGAUAACCUCUCUAUGG
RNA 2: GGGAAUGGAUCCACAUCUACGAAUUCGUACCAUAGAGACAGGUUAUCCGCUCACCGAGAUCGGAAGAGCACACGU
B12: target 1 insC 3' of 13,insU 3' of 2 (mixed)
RNA 1: CACCCGUGCAAAAAUGCAGGGGUCUAAAACUGAGCGGAUAACCUCUCUAUGG
RNA 2: GGGAAUGGAUCCACAUCUACGAAUUCGUACCAUAGAGAGCGUUAUCCGCUCUACCGAGAUCGGAAGAGCACACGU
B13: target 1 U8A,U10A (mixed)
RNA 1: CACCCGUGCAAAAAUGCAGGGGUCUAAAACUGAGCGGAUAACCUCUCUAUGG
RNA 2: GGGAAUGGAUCCACAUCUACGAAUUCGUACCAUAGAGAGGUAAACCGCUCACCGAGAUCGGAAGAGCACACGU

What is called Kd is a measure of binding affinity in units of concentration. Read a high Kd as lower affinity.

In the data set the target is T1, EsCas13d, nuclease-dead. Briefly: crRNA (strand 1, pre-loaded); Mg2+; 40 mM Tris-HCl pH 7.5, 150 mM NaCl, 6 mM MgCl2, 1 mM DTT, 0.1% Tween-20, 0.2 mg/ml BSA; 25 C; 10 min per concentration, then washed. As to conditions: tags: His6-TwinStrep-SUMO cleaved; N-terminal SNAP kept (SNAP-Surface 488); label: 3' end held by stalled T7 RNA polymerase.
In turn, B1 returned a Kd of 7.2 ± 0.6 nM.
The molecule B2 yielded a Kd of 20.5 ± 2.5 nM.
Molecule B3 returned a Kd of 35.2 ± 2.9 nM.
Molecule B4 displayed a Kd of 18.2 ± 0.8 nM.
The figure for B5 is 78 ± 33 nM; for B6 it is 15.6 ± 1.3 nM; for B7 it is 14.9 ± 0.6 nM.
Consider B8, for which the Kd was determined as 35 ± 6 nM.
As for B9, the figure is 62 ± 8 nM; as for B10, around 80 nM; as for B11, 20.4 ± 1.6 nM.
Turning to B12, the affinity, expressed as Kd, was 14.4 ± 1.3 nM.
In turn, B13 registered a Kd of 12.5 ± 0.7 nM.
